We go through one molecule from patent US20220288160A1 (SYNKLINO A S, published 2022).

One experiment has as its target T1, CX3CR1 (human, UniProt P49238 1-355).
T1 sequence: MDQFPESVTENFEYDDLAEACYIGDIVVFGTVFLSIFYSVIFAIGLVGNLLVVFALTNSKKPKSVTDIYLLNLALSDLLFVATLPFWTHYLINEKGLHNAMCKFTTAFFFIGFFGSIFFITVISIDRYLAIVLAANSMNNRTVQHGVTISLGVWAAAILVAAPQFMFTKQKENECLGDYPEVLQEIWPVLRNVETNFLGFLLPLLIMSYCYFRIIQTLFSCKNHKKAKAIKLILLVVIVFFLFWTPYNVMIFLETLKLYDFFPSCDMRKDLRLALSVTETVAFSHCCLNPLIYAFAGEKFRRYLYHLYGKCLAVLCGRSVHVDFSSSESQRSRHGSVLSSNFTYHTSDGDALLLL
The experiment in a line: cell-based or functional assay.

In a further experiment the target is T2, US28 (human cytomegalovirus, UniProt P69332 1-354).
T2 sequence: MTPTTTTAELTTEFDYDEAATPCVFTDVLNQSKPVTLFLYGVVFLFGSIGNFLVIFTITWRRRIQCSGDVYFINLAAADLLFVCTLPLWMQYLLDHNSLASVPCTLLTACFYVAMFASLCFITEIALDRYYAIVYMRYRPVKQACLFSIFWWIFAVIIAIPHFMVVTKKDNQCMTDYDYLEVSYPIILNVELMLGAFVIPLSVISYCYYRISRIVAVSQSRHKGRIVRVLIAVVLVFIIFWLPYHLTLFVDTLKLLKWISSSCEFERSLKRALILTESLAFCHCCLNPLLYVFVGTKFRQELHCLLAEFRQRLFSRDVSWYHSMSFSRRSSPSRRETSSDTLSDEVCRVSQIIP
In words: cell-based or functional assay.

B1: SYN001 (other)
chain: MQHHGVTKCNITCSKMTSKIPVALLIHYQQNQASCGKRAIILETRQHRLACADPKEQWVKDAMQHLDRQAAALTRNRQPRGWEQLEQSGYPVQRLVALYLAARLSWNQVDQVIRNALASPGSGGDLGEAIREQPEQARLALTLAAAESERFVRQGTGNDEAGAASGPADSGDALLERNYPTGAEFLGDGGDISFSTRGTQNWTVERLLQAHRQLEERGYVFVGYHGTFLEAAQSIVFGGVRARSQDLDAIWRGFYIAGDPALAYGYAQDQEPDARGRIRNGALLRVYVPRSSLPGFYRTGLTLAAPEAAGEVERLIGHPLPLRLDAITGPEEEGGRLETILGWPLAERTVVIPSAIPTDPRNVGGDLDPSSIPDKEQAISALPDYASQPGKPPKDE
Consider B1, for which the entries for the “Log IC50 (cell killing)” value in the experiment with CX3CR1 and with US28 were -7.82 and -10.7, respectively.
